Measured values reported in patent publication US20240117061A1 (WUHAN YZY BIOPHARMA, published 2024).

Legend:
[1] = biological target: T1, recombinant human BCMA-mFc fusion protein (human; mouse); experiment: indirect ELISA, coated antigen
T1 construct: also called huBCMA-mFc
T1 chain: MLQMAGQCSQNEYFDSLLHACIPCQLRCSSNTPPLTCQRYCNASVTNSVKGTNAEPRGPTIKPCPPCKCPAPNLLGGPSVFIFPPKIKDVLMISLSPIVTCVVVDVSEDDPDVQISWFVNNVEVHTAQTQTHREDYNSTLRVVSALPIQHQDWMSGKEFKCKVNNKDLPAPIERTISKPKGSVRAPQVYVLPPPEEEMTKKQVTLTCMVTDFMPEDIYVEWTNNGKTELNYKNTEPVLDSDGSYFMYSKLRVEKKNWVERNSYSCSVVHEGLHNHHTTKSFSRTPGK
Method: Procedures: Human, mouse and monkey BCMA antigens were prepared into 0.5 μg/mL coating solutions with PBS buffer. The coating solutions were added to a microplate at 100 μL/well and incubated at 4° C. overnight. The residual coating solution was discarded before 3% BSA was added at 300 μL/well, and the plate was blocked for 3 h at room temperature. The microplate was washed once with PB ST (PBS containing 0.1% of TWEEN 20) at 300 μL/well. The human-mouse chimeric monoclonal antibodies were serially 3-fold diluted from 10 μg/mL to the 9th concentration. The dilutions were added to the microplate at 100 μL/well. After a 1-h incubation at room temperature, the microplate was washed thrice with PB ST at 300 μL/well. The mouse anti-human IgG Fc antibody [HRP] mAb was 25,000-fold diluted with 1% BSA-PBST and added at 100 μL/well. After another 1-h incubation at room temperature, the microplate was washed thrice with PBST at 300 μL/well and dried. The TMB chromogenic solution was added at 100 μL/well. After a 5-min reaction at room temperature, 2 M H₂SO₄ was added at 100 μL/well to terminate the reaction. The microplate was placed on a microplate reader (Molecular Devices, SPECTRA Max plus 384) and the absorbance OD450 value was read at 450 nm wavelength.

[2] = biological target: T2, human BCMA on cells (NCI-H929, U266B1, HEK293 huBCMA) (human, UniProt Q02223 1-184); experiment: flow cytometry on U266B1 cells
T2 construct: whole, on cells; also called cell surface BCMA antigen
T2 sequence (looked up): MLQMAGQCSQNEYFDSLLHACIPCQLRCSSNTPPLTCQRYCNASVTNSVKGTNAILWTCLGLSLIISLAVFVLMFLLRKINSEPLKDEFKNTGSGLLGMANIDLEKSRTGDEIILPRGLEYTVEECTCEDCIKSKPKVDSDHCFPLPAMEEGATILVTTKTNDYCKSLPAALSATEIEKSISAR
Method: (§1) Procedures: The cells were resuspended in PBS, and the cell density was adjusted to 2×10^5 cells/well. Human-mouse chimeric monoclonal antibodies were added to a 96-well plate at 50 μL/well and serially 3-fold diluted from 3000 nM to the 9th concentration. The plate was incubated for 1 h at 4° C. 150 μL of precooled PBS containing 1% of FBS was added into the 96-well plate after the co-incubation with the primary antibody was finished. The mixtures were centrifuged at 300×g for 5 min and the supernatants were discarded. The above procedures were repeated once. The fluorescent secondary antibody PE anti-human IgG Fc (Biolegend, 409304) was added at 80 μL/well. The plate was incubated at 4° C. for 30 min. 150 μL of precooled PBS containing 1% of FBS was added into the 96-well plate after the co-incubation with the secondary antibody was finished. The 96-well plate was centrifuged at 300×g for 5 min and the supernatants were discarded. The above procedures were repeated once. The cells were resuspended in 100 μL of PBS containing 1% of FBS and detected on a flow cytometry (BD Accuri™ C6).

[3] = biological target: T2, human BCMA on cells (NCI-H929, U266B1, …); experiment: flow cytometry on NCI-H929 cells
Method: as §1

[4] = biological target: T3, recombinant human BCMA-his fusion protein (ACRO Biosystem, Cat. No. BCA-H522y) (human, UniProt Q02223 1-54); experiment: SPR (Biacore T200), anti-His capture on CM5, 1:1 fit
T3 construct: extracellular domain; Bought protein; also called huBCMA-his; hu BCMA-his; not shown: His tag
T3 sequence (looked up): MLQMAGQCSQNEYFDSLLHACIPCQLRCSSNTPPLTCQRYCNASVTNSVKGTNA
Method: In this example, the antigen-antibody binding kinetics and affinity were determined by the BIACORE method.
Procedures: The anti-histidine antibody (GE, His capture Kit, Cat. No. 28995056) was conjugated to the Sereis S Sensor Chip CMS to capture the test articles, thus acquiring the binding kinetic and affinity data of the antigen, as an analyte, to the test articles. The initial concentration for detecting the binding of the antigen and the test articles was 10 nM. […] The Start up flushing process (1×HBS-EP+buffer) was performed at least thrice before loading to equilibrate the system. The association and dissociation tendencies between the antigen and the test articles were detected. When the dissociation was completed, a regeneration reagent was loaded for regeneration before the detection of the next concentration was performed. After the detection was finished, the data were fitted by using a 1:1 Binding fitting mode in data analysis software (Biacore T200 Evaluation Software).

[5] = biological target: T3, recombinant human BCMA-his fusion …; experiment: competitive ELISA, coated huBCMA-his, competitor APRIL-biotin
Method: (§2) The 96-well microplate was treated with 100 μL of 0.5 μg/mL huBCMA-his in PBS and incubated overnight at 4° C. The plate was then washed thrice with PBS washing buffer containing 0.1% of Tween-20 and blocked with 300 μL of PBS containing 1% of BSA for 2 h. 100 μL of each BCMA antibody was added to the plate. […] The plate was incubated at 37° C. for 1 h, and unbound secondary antibody was washed with PBS washing buffer containing 0.1% of Tween-20. The TMB chromogenic solution was added at 100 μL/well. After a 5-min reaction at room temperature, 2 M H₂SO₄ was added at 100 μL/well to terminate the reaction. The microplate was placed on a microplate reader (Molecular Devices, SPECTRA Max plus 384) and the absorbance OD450 value was read at 450 nm wavelength.

[6] = biological target: T3, recombinant human BCMA-his fusion …; experiment: competitive ELISA, coated huBCMA-his, competitor 83A10-biotin
Method: as §2

Row | Binder | EC50 [1] | EC50 [2] | EC50 [3] | Kd [4] | koff [4] | kon [4] | IC50 [5] | IC50 [6]
1 | human-mouse chimeric antibody c-mAb2 (antibody, human IgG1, V domains shown, not shown: human IgG1 heavy chain constant region, GenBank No. AK303185.1; human kappa light chain constant region, GenBank No. MG815648.1) VH: QVQLQQSDAELVKPGTSVKISCKVSGYTFTDHTIHWMKQRPEQGLEWIGYIYPRNGNTKYNEKFKGKATLTADKSSSTAYMHLNSLTSEDSAVYFCARYDYDGYFDVWGTGTTVTVSS VL: DVVMTQTPLSLPVSLGDQASISCRSSQSHVHSDGHTYLHWYLQKPGQSPELLIYKVSNRFSGVPDRFSGSGSGTDFTLKISRVEAEDLGVYFCSQNTHFPWTFGGGTKLEIK | 0.427 nM | 14.7 nM | 5.7 nM | 1.45 nM | 0.0679 s⁻¹ | 4.68e+07 M⁻¹ s⁻¹ | 0.0108 µg/mL | 8 µg/mL
2 | human-mouse chimeric antibody c-mAb3 (antibody, human IgG1, V domains shown, not shown: human IgG1 heavy chain constant region, GenBank No. AK303185.1; human kappa light chain constant region, GenBank No. MG815648.1) VH: EVQLQQSGPELVKPGASVKILCKASGYTITDYNMDWVKRSHGKSLEWIGNINPHNGGSIYNQKFKGKATLTVDKSSSTAFMELRSLTSEDTAVYYCARGDATLVLDYWGQGTSLTVSS VL: DIVLTQSPASLAVSLGQRATISCRASKSVSTSGLSYMHWYQQKPGQPPKVLIYLASNLESGVPARFSGSGSGTDFTLNIHPVEEEDAATYYCQHSRELPPTFGAGTKLELK | 0.794 nM | 81.5 nM | 8.25 nM | 0.38 nM | 0.00178 s⁻¹ | 4.69e+06 M⁻¹ s⁻¹ | > 12 µg/mL | 1 µg/mL
